Source: patent US20170204445A1, “IN VIVO SITE-SPECIFIC PROTEIN TAGGING USING ENGINEERED SORTASE VARIANTS” (priority 2016, published 2017)

Experiments:
LPETGSW peptide = LPETGSW peptide (Staphylococcus aureus, UniProt Q2FV99, G167E); assay: Transpeptidation of LPETGSW peptide with wild-type SrtA; details: 15-fold more enzyme (150 μM), 20 hours, 37° C., 25 mM Tris.HCl pH 7.5, 10 mM CaCl2
SrtA7M = biological target: T1, SrtA7M (Staphylococcus aureus, UniProt Q2FV99, D160N/D165A/E105K/E108Q/G167E/K190E/K196T/P94R); assay: In vitro conjugation of purified LPETGG-tagged proteins by SrtA7M (ESI-TOF LC-MS); assay type: biochemical; details: 10 μM SrtA7M, 100 mM Azp or propargylamine, 8 hours, 37° C.
T1 construct: […]; made in house; host or cells: E. coli
Procedure: FIG. 3. Transpeptidation of purified proteins. Purified proteins expressed with a C-terminal LPETGG sequence were incubated with 10 μM SrtA7M for 8 hours at 37° C. along with the desired amine. Proteins were then diluted 10-fold with 0.2% formic acid and analyzed by ESI-TOF LC-MS. (A) Maltose binding protein. (B) Sf9 nanobody, and (C) Fibronectin Fn10, all show 80-100% conversion to the desired conjugate.
FIG. 9. Sortase conjugation time course.
FIG. 10. In vitro conjugation of sfGFP derivatives. (A) His-sfGFP-srt and (B) sfGFPHis-srt were incubated with 10 μM SrtA7M and 100 mM Azp or propargylamine for 8 hours at 37° C.
We next determined the ability of SrtA7M to modify purified proteins. We incubated several proteins containing a C terminal LPETGG sequence (srt) with 10 μM enzyme and either 100 mM Azp or propargylamine, followed by quenching with formic acid. […] To define the effective range of reaction conditions, we tested the conjugation of MBP-srt with Azp at different time points and substrate concentrations.
In vitro conjugation of proteins. Purified MBP-srt, His-sfGFP-srt, Nanobody-His-srt, Glutathione-S-transferase-His-srt, Fibronectin-His-srt, and sfGFP-His-srt were labeled after purification in 100 mM ammonium bicarbonate buffer pH 7.8. […]

B1: Wild-type SrtA: wild-type Staphylococcus aureus sortase A Δ59, SEQ ID NO: 26 (protein, listed as Homo sapiens)
chain: MQAKPQIPKDKSKVAGYIEIPDADIKEPVYPGPATPEQLNRGVSFAEENESLDDQNISIAGHTFIDRPNYQFTNLKAAKKGSMVYFKVGNETRKYKMTSIRDVKPTDVEVLDEQKGKDKQLTLITCDDYNEKTGVWEKRKIFVATEVKLEHHHHHH
LPETGSW peptide
  conversion of LPETGSW peptide: modest conversion

B2: Fn10-His-srt: engineered fibronectin domain Fn10 with His tag and C terminal LPETGG, SEQ ID NO: 29 (protein, listed as Homo sapiens)
chain: MLVPRGSSDVPRDLEVVAATPTSLLISWDAPAVTVRYYRITYGETGGNSPVQEFTVPGSKSTATISGLKPGVDYTITVYAVTPRGDWNEGSKPISINYRTGKKGKGGHHHHHHLPETGG
modifications: His tag, LPETGG
SrtA7M
  conversion / modification of the protein with the amine: complete conversion
